Test results: the Immune Epitope Database (IEDB)

How the values were obtained:
Assay in all cases: IEDB peptide-MHC binding, purified MHC/competitive/radioactivity; filed as Kd, often an IC50 or EC50 that approximates it; ≥ and ≤ were set here for values at or beyond the usual limits of such assays
[1] = molecular target: HLA-A*02:03
[2] = molecular target: HLA-A*02:02
[3] = molecular target: HLA-A*02:06
[4] = molecular target: HLA-A*31:01; settings: source organism: Vaccinia virus WR
[5] = molecular target: HLA-A*33:01; settings: source organism: Vaccinia virus WR
[6] = molecular target: HLA-A*68:01; settings: source organism: Vaccinia virus WR
[7] = molecular target: HLA-A*03:01; settings: source organism: Vaccinia virus WR
[8] = molecular target: HLA-A*11:01; settings: source organism: Vaccinia virus WR
[9] = source organism: Vaccinia virus WR
[10] = source organism: SARS coronavirus Tor2
[11] = source organism: Mammarenavirus guanaritoense

Sequence	Kd [1, 9]	Kd [2, 9]	Kd [3, 9]	other results
CVRNLEELTT	15200 nM	12600 nM	≥ 42800 nM	
KTIAVSVYGA	224 nM	366 nM	427 nM	
LMGHFSWWTA				Kd [1, 10]: 135 nM; Kd [2, 10]: 19.2 nM; Kd [3, 10]: 97.4 nM
WLTPFEKEFT	1550 nM	2370 nM	≥ 30800 nM	
GLFTSLGKAV				Kd ([1]; source organism: Dengue virus 4 Dominica/814669/1981): 18.7 nM
YVPSAEDNYL	≥ 70400 nM	≥ 70000 nM	≥ 69800 nM	
YTRPEIDVL	73.6 nM	115 nM	154 nM	
CNYTRFWYI				Kd [1, 11]: 5310 nM; Kd [2, 11]: 10100 nM; Kd [3, 11]: 257 nM
YIPPCQCTV	445 nM	196 nM	92.5 nM	
EAFETQSGA	≥ 78100 nM	≥ 77800 nM	≥ 49700 nM	
GLYIPGTSVI	0.189 nM	92.1 nM	3620 nM	
TMKAIEKDRL	1060 nM	171 nM	≥ 69800 nM	
STVDVRNIV	3480 nM	6330 nM	1630 nM	
VASDVCKKNL	≥ 70400 nM	≥ 50900 nM	≥ 69800 nM	
IIPFIAYFVL	4730 nM	715 nM	852 nM	
ILFLTLIVFT				Kd [1, 10]: 1070 nM; Kd [2, 10]: 23.6 nM; Kd [3, 10]: 703 nM
TVPTNDHIPV	1890 nM	1680 nM	515 nM	
GVLHTKFWI	12300 nM	16600 nM	417 nM	
LVFLILCFT				Kd [1, 10]: 1850 nM; Kd [2, 10]: 2490 nM; Kd [3, 10]: 1370 nM
TIDKSSPLYI	12.3 nM	387 nM	1820 nM	
NVSGVPHSV	24 nM	825 nM	278 nM	
LLTIGLSLV				Kd ([1]; source organism: Dengue virus 1 Brazil/97-11/1997): 4.99 nM
DIVSDSKKIM	≥ 57200 nM	≥ 25100 nM	≥ 69800 nM	
LLVAAGMEA				Kd [1, 10]: 16.6 nM; Kd [2, 10]: 17.4 nM; Kd [3, 10]: 117 nM
DTGKKELALT	262 nM	1040 nM	6800 nM	
QVLQQNNSFI	3180 nM	544 nM	2320 nM	
GMSKEPGVV				Kd ([1]; source organism: Dengue virus 3 Martinique/1243/1999): 41.7 nM

Sequence	Kd [1, 9]	Kd [2, 9]	Kd [3, 9]	other results
RILGAGCFV				Kd [1, 10]: 53.3 nM; Kd [2, 10]: 24.4 nM; Kd [3, 10]: 38 nM
VLTLATGPV				Kd ([1]; source organism: Dengue virus 4 Philippines/H241/1956): 24.9 nM
FLPSDFFPSV				Kd ([2]; source organism: Hepatitis B virus): 2 nM
FVMCLEAKT	1940 nM	609 nM	979 nM	
ALEQYGIENT	2160 nM	3150 nM	1270 nM	
MQKFTILEYL	279 nM	164 nM	909 nM	
NILMDSIFV	223 nM	252 nM	170 nM	
KINEMVDELV	492 nM	587 nM	3050 nM	
RAFIYSIMET	69.7 nM	81.4 nM	578 nM	
SISEINEWL	1.84 nM	0.129 nM	6.29 nM	
EIITGNKVKT	≥ 70400 nM	≥ 70000 nM	≥ 69800 nM	
AAAKTPVIV	1420 nM	1900 nM	≥ 66800 nM	
LIYRQLTSNV	7.49 nM	78.7 nM	169 nM	
GTGILFMEM	7730 nM	2200 nM	9980 nM	
SICLDYIIV	8650 nM	1460 nM	689 nM	
PTDMLKLFT	≥ 47000 nM	≥ 29100 nM	≥ 69200 nM	
QIGGEAIFLI	0.201 nM	8.19 nM	14.8 nM	
FVKENERVNV	11.8 nM	186 nM	683 nM	
IAVITETIPI	31.9 nM	515 nM	1.04 nM	
DISVNASKTI	11900 nM	≥ 46800 nM	≥ 69800 nM	
NLVQYRILPM	1330 nM	3990 nM	≥ 24500 nM	
GVCYYLLMHL	63.8 nM	95.8 nM	128 nM	
TAYIGTSNWT	1050 nM	1770 nM	220 nM	
ISARALKAY				Kd [4]: 9600 nM; Kd [5]: 16400 nM; Kd [6]: 2470 nM; Kd [7]: 542 nM; Kd [8]: 334 nM
SIHLTKTDKK				Kd [4]: ≥ 21800 nM; Kd [5]: ≥ 70000 nM; Kd [6]: 1990 nM; Kd [7]: 185 nM; Kd [8]: 278 nM
KLITPNYMK				Kd [4]: 486 nM; Kd [5]: ≥ 59300 nM; Kd [6]: 2790 nM; Kd [7]: 10.3 nM; Kd [8]: 5.08 nM
